Data published in PMC7331920.

How the values were obtained:
[1] = target: PHF14 PHD finger 1 (GST-fusion protein); assay: fluorescence polarisation
JADE1 PHD finger 1 = assay: fluorescence polarisation

Kd [1]	Kd (JADE1 PHD finger 1)	Substance
7 µM	32 µM	H3K4me0 peptide (unmodified / wild-type H3 tail peptide)
–	> 100 µM	H3K4me3 peptide
–	> 100 µM	H3K4norleucine peptide
